These results are taken from PMC7910558, “The HIF-1α antisense long non-coding RNA drives a positive feedback loop of HIF-1α mediated transactivation and glycolysis”.

One series deals with PHD3 (EMSA) (UniProt Q9H6Z9 1-239). Put plainly: EMSA; Pull-down: RNA folded in 10 mM Tris pH 7, 0.1 M KCl, 10 mM MgCl2, then 5 µg RNA with 5 mg lysate in Pierce IP lysis buffer, 1 h, room temperature; EMSA: LightShift chemiluminescent RNA EMSA kit, buffer not given. The conditions noted are these: protein: recombinant, label: biotin-16-UTP.
Sequence of PHD3 (EMSA) (Q9H6Z9 whole entry): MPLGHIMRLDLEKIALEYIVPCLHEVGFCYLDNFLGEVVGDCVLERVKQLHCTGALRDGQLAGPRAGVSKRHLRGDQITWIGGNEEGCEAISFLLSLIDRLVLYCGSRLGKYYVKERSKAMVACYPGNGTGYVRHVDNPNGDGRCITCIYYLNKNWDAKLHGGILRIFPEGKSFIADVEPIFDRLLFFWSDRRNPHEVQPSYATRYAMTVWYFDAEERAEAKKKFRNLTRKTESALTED
The target of a further series is PKM2 (EMSA) (UniProt P14618 1-531). The description is as above. The note with it: protein: recombinant; label: biotin-16-UTP; two predicted hairpins (nt 4-19, nt 30-57).
Sequence of PKM2 (EMSA) (P14618 whole entry): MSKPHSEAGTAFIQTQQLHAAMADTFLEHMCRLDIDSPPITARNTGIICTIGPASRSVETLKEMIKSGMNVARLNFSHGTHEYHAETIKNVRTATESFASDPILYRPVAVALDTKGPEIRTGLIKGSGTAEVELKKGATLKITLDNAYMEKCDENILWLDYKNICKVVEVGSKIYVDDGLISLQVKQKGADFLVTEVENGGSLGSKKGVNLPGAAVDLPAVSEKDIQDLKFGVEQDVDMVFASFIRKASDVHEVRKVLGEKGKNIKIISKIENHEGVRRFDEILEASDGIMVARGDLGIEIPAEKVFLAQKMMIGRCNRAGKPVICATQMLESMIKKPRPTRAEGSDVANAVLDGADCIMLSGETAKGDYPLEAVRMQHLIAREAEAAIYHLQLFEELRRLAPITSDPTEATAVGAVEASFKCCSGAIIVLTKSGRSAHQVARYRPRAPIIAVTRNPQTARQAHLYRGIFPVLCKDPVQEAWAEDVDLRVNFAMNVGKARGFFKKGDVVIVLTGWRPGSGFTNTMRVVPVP

B1: HIFAL 501-560 ΔhC (mC) (ssRNA)
RNA: UGCAUGUCUAAACAUUUUUCACCUAUUAUUUAAUC
As to B1, in the series with PHD3 (EMSA), the binding result was “no binding”.

B2: HIFAL nt 1-60 (structured_RNA)
RNA: UCAUGUAGCGCCAGCCACACCAGGAACAGAAGGGUGCCGGGUACCUUCCGCAUGCUUGGU
Regarding B2, the binding result with PKM2 (EMSA) was “binds”.

B3: HIFAL nt 501-560 (structured_RNA)
RNA: UGCAUGGUGCUUACUAAUAACACAGUGGUAUUCUAAACAUUUUUCACCUAUUAUUUAAUC
With B3, in the series with PHD3 (EMSA) (predicted hairpin (nt 506-532)), the binding result was “binds”.
